This series deals with azocasein. Nature of the series: Stability of Et-trypsin and trypsin in a disinfecting composition (Example 2B), azocasein method. Format: physicochemical. As to conditions: 37° C., Example 2B composition, 50 μg/ml. On the procedure:
Azocasein Method The following solutions are used in this assay: 1) Buffer solution: 0.05 M sodium phosphate buffer containing 0.9% sodium chloride, pH 7.6. 2) Substrate solution: 2 mg/ml azocasein in the buffer solution mentioned above. The assay is initiated by mixing 1 ml of an appropriately diluted (such that the enzyme activity is in the range of standard curve) enzyme composition in phosphate buffer with 2 ml of azocasein substrate solution (2 mg/ml). After incubation at 37° C. for 20 minutes, the mixture is removed from the incubator and 1 ml of trichloroacetic acid to (14% w/v) is added to stop the enzyme reaction. The mixture is vortexed well and allowed to stand at room temperature for 20 minutes. After centrifuging at 2500 rpm (with a Beckman GS-6R Centrifuge) for 15 minutes, the supernatant is filtered with a serum sampler. 2 ml of the clear yellow filtrate is then adjusted to a neutral pH with 2 ml of 0.5 N sodium hydroxide and the absorbance of 440 nm wavelength light is measured with a spectrophotometer. The amount of azocasein hydrolyzed is calculated based on a standard curve of known concentrations of azocasein solution developed under identical conditions. An enzyme activity unit (“AZ U”) is defined as that amount of enzyme which hydrolyzes 1 μg of azocasein substrate/minute at 37° C. The following is an example of the stability of Et-trypsin or Me-trypsin in a disinfecting composition of the present invention as compared to an analogous composition containing trypsin. The enzymes were solubilized in the Example 2B composition. The compositions were stored at 37° or 50° C. for 8 days or 30 hours, respectively. At various time points, enzyme activity was assayed using the azocasein method.

For “Trypsin [Native Trypsin, reference compound]”, the “% Activity Remaining” value is 86.8% (1 Hour); 80.0% (2 Hours); 72.7% (4 Hours); 62.9% (6 Hours); 56.6% (8 Hours); 37.6% (1 day). In addition, the “% Activity Remaining” value is, setting by setting: (2 days) 26.8%; (4 days) 17.9%; (8 days) 11.2%.

These data come from US6358897B1, “Alkyl trypsin compositions and methods of use in contact lens cleaning and disinfecting systems” (Alcon Laboratories, Inc., priority 1996, dated 2002).
